Assay results reported in patent US20220144930A1.

Tests used:
[1] = biological target: recombinant human VEGF165 protein (human) (UniProt P15692); experiment: cell-based or functional assay
[2] = biological target: VEGF-165, VEGFC and VEGFD mixture; experiment: cell-based or functional assay

EYLEA (Fc fusion), sequence (chain): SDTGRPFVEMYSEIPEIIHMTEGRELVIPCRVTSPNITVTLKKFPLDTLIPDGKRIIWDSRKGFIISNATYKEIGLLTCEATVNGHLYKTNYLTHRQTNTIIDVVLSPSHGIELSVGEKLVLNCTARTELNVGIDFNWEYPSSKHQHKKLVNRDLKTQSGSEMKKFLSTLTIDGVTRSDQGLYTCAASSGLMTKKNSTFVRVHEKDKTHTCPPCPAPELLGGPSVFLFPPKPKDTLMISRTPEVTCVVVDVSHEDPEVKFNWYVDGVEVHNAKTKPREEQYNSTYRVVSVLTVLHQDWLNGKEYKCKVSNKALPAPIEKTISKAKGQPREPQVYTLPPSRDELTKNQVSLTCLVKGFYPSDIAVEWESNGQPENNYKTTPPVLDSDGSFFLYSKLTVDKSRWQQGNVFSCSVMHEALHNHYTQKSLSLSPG

Row | EC50(nM), neutralizing VEGF165 at 10 ng/mL, HUVEC proliferation [1] [nM] | EC50(nM), neutralizing VEGF165 at 100 ng/mL, HUVEC proliferation [1] [nM] | EC50(nM), neutralizing VEGF165 at 1000 ng/mL, HUVEC proliferation [1] [nM] | maximum neutralization rate (%), VEGF165 at 10 ng/mL, HUVEC proliferation [1] [%] | maximum neutralization rate (%), VEGF165 at 100 ng/mL, HUVEC proliferation [1] [%] | maximum neutralization rate (%), VEGF165 at 1000 ng/mL, HUVEC proliferation [1] [%] | EC50(nM), neutralizing VEGF165, VEGFC and VEGFD mixture, HUVEC proliferation [2] [nM] | Maximum neutralization rate Emax (%), VEGF165, VEGFC and VEGFD mixture, HUVEC proliferation [2] [%] | Substance
1 | 0.16 | 2.9 | 40.2 | 101 | 98.7 | 80.2 |  |  | EYLEA (Fc fusion)
2 |  |  |  |  |  |  | 0.77 | 58.5 | Avastin (bevacizumab) (antibody)
